Test results: patent US12144869B2, “Anti-ROR1 antibody conjugates, compositions comprising anti ROR1 antibody conjugates, and methods of making and using anti-ROR1 antibody conjugates” (Sutro Biopharma, Inc., priority 2022, dated 2024)

Key:
ROR1 negative MCF7 cells = assay: In vitro cell killing of ROR1 ADCs on MCF7; assay type: cell-based
Description: (§1) Anti-ROR1 antibody was conjugated to different linker-warheads described herein at different DARs and the cell killing activity of the ADCs were evaluated on ROR1 positive Ntera-2 cell and ROR1 negative MCF7 cells.
(§2) Ntera-2 or MCF7 cell at 625 cells/25 μL were seeded in a 384-well flat bottom white polystyrene plate one day before the assay start. ADCs were formulated at 2× starting concentration. Filter sterilized samples were serial diluted (1:3) under sterile conditions and added onto cells in triplicates. Plates were cultured at 37° C. in a CO2 incubator for 120 hours. For cell viability measurement, 30 microliter of Cell Titer-Glo® reagent (Promega Corp, Madison, WI) was added into each well, and plates processed as per product instructions. Relative luminescence was measured on an ENVISION® plate reader (Perkin-Elmer; Waltham, MA). Relative luminescence readings were converted to % viability using untreated cells as controls. Data was fitted with non-linear regression analysis, using log (inhibitor) vs. response, variable slope, 4-parameter fit equation using GraphPad Prism.
(§3) To evaluate if the cell killing activity of anti-ROR1 ADCs is dependent on antibody binding to ROR1 expressed on cell surface, the same linker-warheads (LP3, LP4) were conjugated to an anti-GFP antibody and the cell killing of the anti-ROR1 and anti-GFP ADCs were evaluated in cell killing assays on ROR1 positive Ntera-2 cell and ROR1 negative MCF7 cells.

[1] = test system: ROR1 positive Ntera-2 cell; assay: In vitro cell killing of ROR1 ADCs on Ntera-2; assay type: cell-based
Description: as §1, §2
as §3, with “cells. […]” for “cells.”

[2] = test system: ROR1-positive Ntera-2 cells co-cultured with PMBCS; assay: Ntera-2/PBMC co-culture: target cell killing and monocyte activation; assay type: cell-based
Description: ROR1-positive Ntera-2 cells were co-cultured with PMBCS at E:T=[…] and treated with Conjugate 46 or exatecan for 3 days. Live target cell count and monocyte activation were measured by FACS. […] FIG. 21A and FIG. 21B are graphs showing the percent of live target cells and monocyte activation in Ntera-2 cells following treatment with Conjugate 46 or exatecan compared to the un-conjugated antibody and an isotype control of Conjugate 46. […] Unconjugated anti-ROR1 antibody or a non-targeted ADC had no activity. […] Viability and calreticulin surface expression were measured and presented as a percentage compared to untreated cells.

[3] = test system: ROR1-positive Ntera-2 cells; assay: Induction of immunogenic cell death markers (calreticulin FACS, HMGB1 ELISA); assay type: cell-based; details: 3 days treatment
Description: ROR1-positive Ntera-2 cells were treated with Conjugate 46 or exatecan for 3 days. Calreticulin on the cell surface was measured by FACS and HMGB1 in the cell culture medium were measured by ELISA. […] FIG. 20A and FIG. 20B illustrate calreticulin expression and HMGB1 release of Ntera-2 cells in the presence of Conjugate 46 or exatecan compared to the un-conjugated antibody and an isotype control of Conjugate 46.

human ROR1-Fz = target: T1, human ROR1-Fz (Homo sapiens, UniProt Q01973); assay: Biacore off-rate and kinetic analysis, ROR1-Fz; assay type: binding; details: Table 11; SP34 light chain
T1 construct: Frizzled (Fz, residues 165-305); His6 (C); purchased Acro Biosystems; host or cells: HEK293
T1 sequence (Q01973 165-305): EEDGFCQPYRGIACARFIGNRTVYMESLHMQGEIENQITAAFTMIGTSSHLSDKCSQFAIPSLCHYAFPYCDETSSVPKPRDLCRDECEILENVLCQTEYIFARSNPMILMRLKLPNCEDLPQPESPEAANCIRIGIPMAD
Outline: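 Anti-ROR1 antibodies captured on anti-human Fc surface; recombinant hROR1 ECD or ROR1-Fz analyte flowed at 100, 50, 25, 6.25, 1.5625 nM plus 0 nM, 180 s association, 600 s dissociation, 25° C., HBS-EP+ buffer. KD from ratio of rate constants, 1:1 Langmuir fit.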

ROR1 or ROR2 = assay: ROR2 cross-reactivity ELISA (ROR1/ROR2 signal ratio); assay type: binding; details: Table 11; SP34 light chain
Description: Antibodies were tested for their ability to bind to either ROR1 or ROR2 via ELISA. Briefly, 2 μg/mL of ROR1 or ROR2 (Acro Biosystems) were coated to 384-well polystyrene plates for 1 hr at 30° C. in 0.1 M bicarbonate pH8.9 buffer before they were washed and blocked with 2% BSA in PBST (PBS, 0.1% Tween20) for 1 hr. Antibody variants were diluted to 2.5 μg/mL and further serially diluted 3-fold before 30 μL was applied to the ELISA plates for binding (1 hr at 30° C.). Antibody binding was detected via HRP-conjugated anti-human Fc antibodies (Jackson Immunoresearch) and detection with SuperSignal ELISA Pico Chemiluminescent Substrate (Pierce). Cross-reactivity was reported as a ratio of ROR1-ELISA signal over ROR2-ELISA signal at the highest dilution tested.

[4] = Differential scanning fluorimetry (protein thermal shift; TM1/TM2); assay type: physicochemical; details: Table 11; melting temperature of the Fab domain
Outline: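 Protein at 0.2-2 mg/mL was mixed 1:1 with SYPRO Orange in PBS and heated to 95° C. at ~1.5° C. per minute while fluorescence was monitored, in quadruplicate. TM1 is Fc (CH2) unfolding and TM2 is Fab unfolding.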

Biacore human ROR1-Fz ka (human ROR1-Fz)	Biacore human ROR1-Fz kd (human ROR1-Fz)	Molecule	EC50 (ROR1 negative MCF7 cells; Homo sapiens, MCF7, 120 h, read-out: MCF-7 EC50)	MCF-7 Span (ROR1 negative MCF7 cells; Table 13, ROR1 negative MCF7, 120 hours)	EC50 ([1]; NTERA2, 120 h, read-out: NTERA-2 EC50)	NTERA-2 Span ([1]; Table 13, ROR1 positive Ntera-2, 120 hours)	cell killing of target cells (live target cell count, FACS) ([2]; E:T=10.1, 3 days)	monocyte activation (CD86 expression) ([2]; E:T=10.1, 3 days)	calreticulin on the cell surface ([2]; concomitant with reduced viability)	HMGB1 release into the cell culture medium (ELISA) [3]	calreticulin translocation to the cell surface (FACS) [3]	ROR1/ROR2 ELISA ratio (ROR1 or ROR2)	TM2 (° C.) [4]
		CC[C@@]1(O)C(=O)OCc2c1cc1n(c2=O)Cc2c-1nc1cc(F)c(C)c3c1c2[C@@H](N)CC3 [exatecan]	0.466 nM	91%	0.074 nM	98%	induced potent cell killing of target cells	potently induced monocyte activation	could be detected on the cell surface	induced	induced		
186000 M⁻¹ s⁻¹	0.00064 s⁻¹	SRP2196-A07 (antibody, V domains shown) VH: EVQLVESGGGLVQPGGSLRLSCAASGFNITGYYIHWVRQAPGKGLEWVGQISPNSGSTYYADSVKGRFTISADTSKNTAYLQMSSLRAEDTAVYYCARDSRRYVRGWDYWGQGTLVTVSS VL: QAVVTQESALTTSPGETVTLTCRSSTGAVTTSNYANWVQEKPDHLFTGLIGGTNKRAPGVPARFSGSLIGDKAALTITGAQTEDEAIYFCALWYSNLWVFGGGTKLTVL										16.3	74 °C
130000 M⁻¹ s⁻¹	0.000427 s⁻¹	SRP2196-B09 (antibody, V domains shown) VH: EVQLVESGGGLVQPEGSLRLSCAASGFNITEYYIHWVRQAPGKGLEWVGYISPNSGSTYYADSVKGRFTISADTSKNTAYLQMNSLRAEDTAVYYCARDSRRYVRSWDYWGQGTLVTVSS VL: QAVVTQESALTTSPGETVTLTCRSSTGAVTTSNYANWVQEKPDHLFTGLIGGTNKRAPGVPARFSGSLIGDKAALTITGAQTEDEAIYFCALWYSNLWVFGGGTKLTVL										27.3	72 °C
137000 M⁻¹ s⁻¹	0.000597 s⁻¹	SRP2196-B11 (antibody, V domains shown) VH: EVQLVESGGGLVQPGGSLRLSCAASGFNITGYYIHWVRQAPGRGLEWVGQISPNSGYTYYADSVKGRFTISADTSKNTAYLQMNSLRAEDTAVYYCARDSRRYIRSWDYWGQGTLVTVSS VL: QAVVTQESALTTSPGETVTLTCRSSTGAVTTSNYANWVQEKPDHLFTGLIGGTNKRAPGVPARFSGSLIGDKAALTITGAQTEDEAIYFCALWYSNLWVFGGGTKLTVL										19.1	74 °C
150000 M⁻¹ s⁻¹	0.000568 s⁻¹	SRP2196-A09 (antibody, V domains shown) VH: EVQLVESGGGLVQPGGSLRLSCAASGFNITGYYIHWVRQAPGKGLEWVGQISPNSGATHYADSVKGRFTISADTSKNTAYLQMNSLRAEDTAVYYCARDSRRYIRSWDYWGQGTLVTVSS VL: QAVVTQESALTTSPGETVTLTCRSSTGAVTTSNYANWVQEKPDHLFTGLIGGTNKRAPGVPARFSGSLIGDKAALTITGAQTEDEAIYFCALWYSNLWVFGGGTKLTVL										20.1	75 °C
131000 M⁻¹ s⁻¹	0.000401 s⁻¹	SRP2196-B01 (antibody, V domains shown) VH: EVQLVESGGGLVQPGGSLRLSCAASGFNITGYYIHWVRQAPGKGLEWVGQISPNSGYTYYADSVKGRFTISADTSKNTTYLQMNSLRAEDTAVYYCARDSRRYVRSWDYWGQGTLVTVSS VL: QAVVTQESALTTSPGETVTLTCRSSTGAVTTSNYANWVQEKPDHLFTGLIGGTNKRAPGVPARFSGSLIGDKAALTITGAQTEDEAIYFCALWYSNLWVFGGGTKLTVL										17.2	75 °C
124000 M⁻¹ s⁻¹	0.000945 s⁻¹	SRP2196-B03 (antibody, V domains shown) VH: EVQLVESGGGLAQPGGSLRLSCAASGFNITGYYIHWVRQAPGKGLEWVGYISPNSGATHYADSVKGRFTISADTSKNTAYLQMNSLRAEDTAVYYCARDSRRYVRPFDYWGQGTLVTVSS VL: QAVVTQESALTTSPGETVTLTCRSSTGAVTTSNYANWVQEKPDHLFTGLIGGTNKRAPGVPARFSGSLIGDKAALTITGAQTEDEAIYFCALWYSNLWVFGGGTKLTVL										22.8	71 °C
